Patent publication US20170298139A1 (OPI VI IP HOLDCO, published 2017)

What was measured:
Rhesus CD40 ECD monomer = biological target: T1, Rhesus CD40 ECD monomer (rhesus, UniProt F6SNI1 21-193); assay: BLI (Octet Red 96), antibody on anti-human Fc sensor, monomeric CD40 ECD as analyte, 1:1 fit
T1 construct: Recombinant monomeric CD40 ECD used as analyte; also called monomeric rhesus CD40
Description: (§1) Analysis of CD40 ECD interaction was performed using Octet Red 96 instrument (ForteBio). The Octet systems use propriety BLI to analyze biomolecular interaction. […] The experiments were comprised of 5 steps: (1) baseline acquisition (60 s); (2) antibodies and antibody immune-stimulatory compound conjugates loading onto anti-human Fc biosensor (120 s); (3) second baseline acquisition (60 s); (4) association of interacting monomeric CD40 ECD protein for kₒₙ measurement (120 s); (5) Dissociation of interacting monomeric CD40 ECD for koff measurement (360 s). The interacting monomeric CD40 ECD were used at 5-6 concentrations of 3-fold concentration series. Data were analyzed using Octet Data Analysis Sofware 9.0 (ForteBio) and fitted to the 1:1 binding model. Equilibrium dissociation constants (KD) were calculated by the […].

human FcγRIIIB = biological target: T2, human FcγRIIIB (human, UniProt O75015 17-200); assay: BLI (Octet Red 96), FcγR on anti-his tag sensor, antibody as analyte, avidity fit
T2 construct: also called CD16b
T2 sequence (O75015 17-200 limits assumed): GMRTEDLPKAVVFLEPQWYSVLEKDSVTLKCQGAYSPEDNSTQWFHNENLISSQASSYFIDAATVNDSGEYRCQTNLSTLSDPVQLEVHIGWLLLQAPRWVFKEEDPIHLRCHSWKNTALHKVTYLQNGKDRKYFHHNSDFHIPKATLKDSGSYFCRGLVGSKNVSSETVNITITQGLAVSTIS
Description: For human FcγRIIB/C, FcγRIIIA F158, FcγRIIIA V158 and FcγRIIIB interaction studies, the proteins were immobilized on anti-his tag biosensors and incubated with varying concentration of unconjugated anti-CD40 antibodies or anti-CD40 antibody immune-stimulatory compound conjugates ranging from 0.04 μM to 8 μM. […] The experiment comprised of 5 steps: (1) baseline acquisition (60 s); (2) anti-CD40 antibodies or anti-CD40 antibody immune-stimulatory compound conjugates loading onto […] (120 s); (3) second baseline acquisition (60 s); (4) association of interacting protein for kₒₙ measurement (120 s); (5) dissociation of interacting FcγR for koff measurement (300 s). The interacting anti-CD40 antibodies or anti-CD40 antibody immune-stimulatory compound conjugates were used at 4 concentrations of 2 fold concentration series. Data were analyzed using Octet Data Analysis Software 9.0 (ForteBio) and fitted to the avidity binding model. Equilibrium dissociation constants (KD) were calculated by the […].

human FcγRI = biological target: T3, human FcγRI (human, UniProt P12314 16-288, limits assumed); assay: BLI (Octet Red 96), antibody on anti-human Fc sensor, monomeric FcγR as analyte
T3 construct: Monomeric FcγR used as analyte in solution; also called CD64
T3 sequence (P12314 16-288 limits assumed): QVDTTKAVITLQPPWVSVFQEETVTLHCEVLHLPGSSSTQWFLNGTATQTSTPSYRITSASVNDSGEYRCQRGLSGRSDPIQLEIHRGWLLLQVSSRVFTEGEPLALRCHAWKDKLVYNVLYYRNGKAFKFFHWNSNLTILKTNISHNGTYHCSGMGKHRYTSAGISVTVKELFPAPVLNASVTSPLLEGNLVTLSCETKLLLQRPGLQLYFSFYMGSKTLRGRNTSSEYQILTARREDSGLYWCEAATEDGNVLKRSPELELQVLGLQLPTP
Description: Human FcγR interaction analysis was also performed using Octet Red 96 instrument. […] The experiments were comprised of 5 steps: (1) baseline acquisition (60 s); (2) anti-CD40 antibodies or anti-CD40 antibody immune-stimulatory compound conjugates loading onto anti-human Fc biosensor (120 s); (3) second baseline acquisition (60 s); (4) association of interacting protein for kₒₙ measurement (120 s); (5) dissociation of interacting FcγR for koff measurement (300 s). The interacting monomeric FcγR were used at 5-6 concentrations of 3-fold concentration series. Data were analyzed using Octet Data Analysis Software 9.0 (ForteBio) and fitted to the 1:1 binding model. Equilibrium dissociation constants (KD) were calculated by the […].

Human CD40 ECD monomer = biological target: T4, Human CD40 ECD monomer (human, UniProt P25942 21-193); assay: BLI (Octet Red 96), antibody on anti-human Fc sensor, monomeric CD40 ECD as analyte, 1:1 fit
T4 construct: extracellular domain; Recombinant monomeric CD40 ECD used as analyte; also called monomeric human CD40; CD40 Extracellular Domain (ECD)
T4 sequence (P25942 21-193): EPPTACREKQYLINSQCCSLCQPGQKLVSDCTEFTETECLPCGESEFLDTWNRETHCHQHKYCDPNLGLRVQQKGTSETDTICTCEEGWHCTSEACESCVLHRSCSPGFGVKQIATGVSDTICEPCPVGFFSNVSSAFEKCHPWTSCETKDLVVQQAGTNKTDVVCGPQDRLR
Description: as §1

T1 sequence (F6SNI1 entry or part of it limits assumed): as the sequence (P25942 21-193) above, with G43S, H56R, W89L, T92M, A95S, L101P, S106L, H142R, L172Q counted along it

Row | Binder | Kd (Rhesus CD40 ECD monomer) | Kd (human FcγRIIIB) | binding result (human FcγRI) | Kd (Human CD40 ECD monomer)
1 | SBT-040-WT-ATAC11 (antibody, human IgG1, kappa, ATAC11 on reduced cysteines; sites not stated (heavy or light chain); ATAC11 (maleimide-PEG4 linker with immune-stimulatory compound) on reduced cysteines; sites not stated (heavy or light chain); DAR 4.5) heavy: not shown light: DIQMTQSPSSVSASVGDRVTITCRASQGIYSWLAWYQQKPGKAPNLLIYTASTLQSGVPSRFSGSGSGTDFTLTISSLQPEDFATYYCQQANIFPLTFGGGTKVEIKRTVAAPSVFIFPPSDEQLKSGTASVVCLLNNFYPREAKVQWKVDNALQSGNSQESVTEQDSKDSTYSLSSTLTLSKADYEKHKVYACEVTHQGLSSPVTKSFNRGEC | 13.5 nM | 5 µM |  | 
2 | SBT-040-G2 (antibody, human IgG2, kappa, also called SBT-040-G2WT) heavy: not shown light: DIQMTQSPSSVSASVGDRVTITCRASQGIYSWLAWYQQKPGKAPNLLIYTASTLQSGVPSRFSGSGSGTDFTLTISSLQPEDFATYYCQQANIFPLTFGGGTKVEIKRTVAAPSVFIFPPSDEQLKSGTASVVCLLNNFYPREAKVQWKVDNALQSGNSQESVTEQDSKDSTYSLSSTLTLSKADYEKHKVYACEVTHQGLSSPVTKSFNRGEC | 12.4 nM |  | no binding (tested: 1.2 nM to 1 µM FcγR) | 7.7 nM
3 | SBT-040-WT-ATAC4 (antibody, human IgG1, kappa, ATAC4 on lysines; sites not stated (heavy or light chain); ATAC4 (PEG linker with activated ester and immune-stimulatory compound) on lysines; sites not stated (heavy or light chain); DAR 4.6, also called SBT-040-G1-ATAC4) heavy: not shown light: DIQMTQSPSSVSASVGDRVTITCRASQGIYSWLAWYQQKPGKAPNLLIYTASTLQSGVPSRFSGSGSGTDFTLTISSLQPEDFATYYCQQANIFPLTFGGGTKVEIKRTVAAPSVFIFPPSDEQLKSGTASVVCLLNNFYPREAKVQWKVDNALQSGNSQESVTEQDSKDSTYSLSSTLTLSKADYEKHKVYACEVTHQGLSSPVTKSFNRGEC | 12.9 nM | 3.24 µM |  | 9.3 nM
4 | SBT-040-WT-ATAC3 (antibody, human IgG1, kappa, ATAC3 on lysines; sites not stated (heavy or light chain); ATAC3 (PEG linker with activated ester and immune-stimulatory compound) on lysines; sites not stated (heavy or light chain); DAR 5.4, also called SBT-040-G1-ATAC3) heavy: not shown light: DIQMTQSPSSVSASVGDRVTITCRASQGIYSWLAWYQQKPGKAPNLLIYTASTLQSGVPSRFSGSGSGTDFTLTISSLQPEDFATYYCQQANIFPLTFGGGTKVEIKRTVAAPSVFIFPPSDEQLKSGTASVVCLLNNFYPREAKVQWKVDNALQSGNSQESVTEQDSKDSTYSLSSTLTLSKADYEKHKVYACEVTHQGLSSPVTKSFNRGEC | 13.1 nM | 1.5 µM |  | 9 nM
5 | SBT-040-WT-ATAC22 (antibody, human IgG1, kappa, ATAC22 on reduced cysteines; sites not stated (heavy or light chain); ATAC22 (maleimidocaproyl-Val-Ala-PAB linker with immune-stimulatory compound) on reduced cysteines; sites not stated (heavy or light chain); DAR 4.6) heavy: not shown light: DIQMTQSPSSVSASVGDRVTITCRASQGIYSWLAWYQQKPGKAPNLLIYTASTLQSGVPSRFSGSGSGTDFTLTISSLQPEDFATYYCQQANIFPLTFGGGTKVEIKRTVAAPSVFIFPPSDEQLKSGTASVVCLLNNFYPREAKVQWKVDNALQSGNSQESVTEQDSKDSTYSLSSTLTLSKADYEKHKVYACEVTHQGLSSPVTKSFNRGEC | 13.6 nM | 2.71 µM |  | 8 nM
6 | SBT-040-WT antibody (antibody, human IgG1, kappa, also called SBT-040-G1) heavy: not shown light: DIQMTQSPSSVSASVGDRVTITCRASQGIYSWLAWYQQKPGKAPNLLIYTASTLQSGVPSRFSGSGSGTDFTLTISSLQPEDFATYYCQQANIFPLTFGGGTKVEIKRTVAAPSVFIFPPSDEQLKSGTASVVCLLNNFYPREAKVQWKVDNALQSGNSQESVTEQDSKDSTYSLSSTLTLSKADYEKHKVYACEVTHQGLSSPVTKSFNRGEC | 14 nM | 3.6 µM |  | 
7 | SBT-040-G2-ATAC11 (antibody, human IgG2, kappa, ATAC11 on reduced cysteines; sites not stated (heavy or light chain); ATAC11 (maleimide-PEG4 linker with immune-stimulatory compound) on reduced cysteines; sites not stated (heavy or light chain); DAR 4.0) heavy: not shown light: DIQMTQSPSSVSASVGDRVTITCRASQGIYSWLAWYQQKPGKAPNLLIYTASTLQSGVPSRFSGSGSGTDFTLTISSLQPEDFATYYCQQANIFPLTFGGGTKVEIKRTVAAPSVFIFPPSDEQLKSGTASVVCLLNNFYPREAKVQWKVDNALQSGNSQESVTEQDSKDSTYSLSSTLTLSKADYEKHKVYACEVTHQGLSSPVTKSFNRGEC | 14 nM |  | no binding (tested: 1.2 nM to 1 µM FcγR) | 7.4 nM
8 | SBT-040-G2-ATAC22 (antibody, human IgG2, kappa, ATAC22 on reduced cysteines; sites not stated (heavy or light chain); ATAC22 (maleimidocaproyl-Val-Ala-PAB linker with immune-stimulatory compound) on reduced cysteines; sites not stated (heavy or light chain); DAR 4.1) heavy: not shown light: DIQMTQSPSSVSASVGDRVTITCRASQGIYSWLAWYQQKPGKAPNLLIYTASTLQSGVPSRFSGSGSGTDFTLTISSLQPEDFATYYCQQANIFPLTFGGGTKVEIKRTVAAPSVFIFPPSDEQLKSGTASVVCLLNNFYPREAKVQWKVDNALQSGNSQESVTEQDSKDSTYSLSSTLTLSKADYEKHKVYACEVTHQGLSSPVTKSFNRGEC | 15.2 nM |  | no binding (tested: 1.2 nM to 1 µM FcγR) | 7.2 nM
9 | SBT-040-G2-ATAC3 (antibody, human IgG2, kappa, ATAC3 on lysines; sites not stated (heavy or light chain); ATAC3 (PEG linker with activated ester and immune-stimulatory compound) on lysines; sites not stated (heavy or light chain); DAR 3.3) heavy: not shown light: DIQMTQSPSSVSASVGDRVTITCRASQGIYSWLAWYQQKPGKAPNLLIYTASTLQSGVPSRFSGSGSGTDFTLTISSLQPEDFATYYCQQANIFPLTFGGGTKVEIKRTVAAPSVFIFPPSDEQLKSGTASVVCLLNNFYPREAKVQWKVDNALQSGNSQESVTEQDSKDSTYSLSSTLTLSKADYEKHKVYACEVTHQGLSSPVTKSFNRGEC | 11.5 nM | 3.93 µM | no binding (tested: 1.2 nM to 1 µM FcγR) | 7.3 nM
10 | SBT-040-G2-ATAC4 (antibody, human IgG2, kappa, ATAC4 on lysines; sites not stated (heavy or light chain); ATAC4 (PEG linker with activated ester and immune-stimulatory compound) on lysines; sites not stated (heavy or light chain); DAR 2.9) heavy: not shown light: DIQMTQSPSSVSASVGDRVTITCRASQGIYSWLAWYQQKPGKAPNLLIYTASTLQSGVPSRFSGSGSGTDFTLTISSLQPEDFATYYCQQANIFPLTFGGGTKVEIKRTVAAPSVFIFPPSDEQLKSGTASVVCLLNNFYPREAKVQWKVDNALQSGNSQESVTEQDSKDSTYSLSSTLTLSKADYEKHKVYACEVTHQGLSSPVTKSFNRGEC | 13.6 nM |  | no binding (tested: 1.2 nM to 1 µM FcγR) | 8.7 nM
11 | SBT-040-AAA-ATAC22 (antibody, human IgG1, kappa, ATAC22 on reduced cysteines; sites not stated (heavy or light chain); ATAC22 (maleimidocaproyl-Val-Ala-PAB linker with immune-stimulatory compound) on reduced cysteines; sites not stated (heavy or light chain); DAR 4.1) heavy: not shown light: DIQMTQSPSSVSASVGDRVTITCRASQGIYSWLAWYQQKPGKAPNLLIYTASTLQSGVPSRFSGSGSGTDFTLTISSLQPEDFATYYCQQANIFPLTFGGGTKVEIKRTVAAPSVFIFPPSDEQLKSGTASVVCLLNNFYPREAKVQWKVDNALQSGNSQESVTEQDSKDSTYSLSSTLTLSKADYEKHKVYACEVTHQGLSSPVTKSFNRGEC |  |  |  | 5 nM
12 | SBT-040-AAA-ATAC11 (antibody, human IgG1, kappa, ATAC11 on reduced cysteines; sites not stated (heavy or light chain); ATAC11 (maleimide-PEG4 linker with immune-stimulatory compound) on reduced cysteines; sites not stated (heavy or light chain); DAR 2.9) heavy: not shown light: DIQMTQSPSSVSASVGDRVTITCRASQGIYSWLAWYQQKPGKAPNLLIYTASTLQSGVPSRFSGSGSGTDFTLTISSLQPEDFATYYCQQANIFPLTFGGGTKVEIKRTVAAPSVFIFPPSDEQLKSGTASVVCLLNNFYPREAKVQWKVDNALQSGNSQESVTEQDSKDSTYSLSSTLTLSKADYEKHKVYACEVTHQGLSSPVTKSFNRGEC |  | 3.83 µM |  | 
13 | SBT-040-VLPLL-ATAC22 (antibody, human IgG1, kappa, ATAC22 on reduced cysteines; sites not stated (heavy or light chain); ATAC22 (maleimidocaproyl-Val-Ala-PAB linker with immune-stimulatory compound) on reduced cysteines; sites not stated (heavy or light chain); DAR 3.9) heavy: not shown light: DIQMTQSPSSVSASVGDRVTITCRASQGIYSWLAWYQQKPGKAPNLLIYTASTLQSGVPSRFSGSGSGTDFTLTISSLQPEDFATYYCQQANIFPLTFGGGTKVEIKRTVAAPSVFIFPPSDEQLKSGTASVVCLLNNFYPREAKVQWKVDNALQSGNSQESVTEQDSKDSTYSLSSTLTLSKADYEKHKVYACEVTHQGLSSPVTKSFNRGEC |  |  |  | 7.5 nM
14 | SBT-040-VLPLL-ATAC11 (antibody, human IgG1, kappa, ATAC11 on reduced cysteines; sites not stated (heavy or light chain); ATAC11 (maleimide-PEG4 linker with immune-stimulatory compound) on reduced cysteines; sites not stated (heavy or light chain); DAR 2.9) heavy: not shown light: DIQMTQSPSSVSASVGDRVTITCRASQGIYSWLAWYQQKPGKAPNLLIYTASTLQSGVPSRFSGSGSGTDFTLTISSLQPEDFATYYCQQANIFPLTFGGGTKVEIKRTVAAPSVFIFPPSDEQLKSGTASVVCLLNNFYPREAKVQWKVDNALQSGNSQESVTEQDSKDSTYSLSSTLTLSKADYEKHKVYACEVTHQGLSSPVTKSFNRGEC |  |  |  | 7.6 nM
